These results are taken from publication PMC2688778 (Structure (London, England : 1993), 2009).

What all share (test): fluorescence anisotropy
A general note: Fluorescence polarisation rises when a labelled molecule tumbles more slowly, as on binding a larger partner.

The target in one data set is T1, RecE564 E729A (Escherichia coli K12, UniProt P15032 564-866, E729A).
T1 sequence: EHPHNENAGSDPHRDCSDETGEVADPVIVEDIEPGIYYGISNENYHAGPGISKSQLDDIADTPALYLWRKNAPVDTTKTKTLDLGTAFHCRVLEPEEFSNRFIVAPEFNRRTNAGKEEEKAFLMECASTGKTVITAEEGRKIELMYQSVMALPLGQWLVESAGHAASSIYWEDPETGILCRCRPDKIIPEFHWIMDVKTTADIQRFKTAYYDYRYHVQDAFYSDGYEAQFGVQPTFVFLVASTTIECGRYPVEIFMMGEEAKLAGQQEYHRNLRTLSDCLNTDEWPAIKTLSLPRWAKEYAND

The next data set has as its target T2, RecE564 Y778A (Escherichia coli K12, UniProt P15032 564-866, Y778A).
T2 sequence: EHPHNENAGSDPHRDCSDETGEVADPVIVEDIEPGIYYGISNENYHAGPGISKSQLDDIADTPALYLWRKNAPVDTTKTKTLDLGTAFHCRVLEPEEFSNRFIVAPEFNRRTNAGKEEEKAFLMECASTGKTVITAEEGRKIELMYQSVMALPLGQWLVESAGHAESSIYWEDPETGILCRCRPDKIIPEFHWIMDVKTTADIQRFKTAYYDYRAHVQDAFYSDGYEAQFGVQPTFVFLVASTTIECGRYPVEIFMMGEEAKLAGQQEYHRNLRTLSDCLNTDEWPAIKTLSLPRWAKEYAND

The next data set addresses T3, RecE564 Y785A (Escherichia coli K12, UniProt P15032 564-866, Y785A).
T3 sequence: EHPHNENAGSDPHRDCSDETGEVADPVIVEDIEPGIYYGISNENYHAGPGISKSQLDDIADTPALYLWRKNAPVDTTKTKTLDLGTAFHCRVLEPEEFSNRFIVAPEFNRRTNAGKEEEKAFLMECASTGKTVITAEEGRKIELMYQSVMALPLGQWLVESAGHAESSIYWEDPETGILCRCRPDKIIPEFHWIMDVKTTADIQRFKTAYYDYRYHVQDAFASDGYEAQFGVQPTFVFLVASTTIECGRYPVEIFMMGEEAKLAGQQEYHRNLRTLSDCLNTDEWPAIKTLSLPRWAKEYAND

The target in another data set is T4, RecE564 P669A (Escherichia coli K12, UniProt P15032 564-866, P669A).
T4 sequence: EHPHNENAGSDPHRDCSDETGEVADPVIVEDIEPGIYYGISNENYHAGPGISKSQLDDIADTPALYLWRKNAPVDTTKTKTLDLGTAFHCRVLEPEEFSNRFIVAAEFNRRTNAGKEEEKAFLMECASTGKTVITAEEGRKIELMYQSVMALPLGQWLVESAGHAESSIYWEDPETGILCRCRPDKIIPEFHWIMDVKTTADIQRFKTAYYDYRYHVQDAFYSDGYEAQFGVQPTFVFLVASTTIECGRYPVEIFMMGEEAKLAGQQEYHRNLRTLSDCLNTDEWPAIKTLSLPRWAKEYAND

In the next data set the target is T5, RecE564 E657A (Escherichia coli K12, UniProt P15032 564-866, E657A).
T5 sequence: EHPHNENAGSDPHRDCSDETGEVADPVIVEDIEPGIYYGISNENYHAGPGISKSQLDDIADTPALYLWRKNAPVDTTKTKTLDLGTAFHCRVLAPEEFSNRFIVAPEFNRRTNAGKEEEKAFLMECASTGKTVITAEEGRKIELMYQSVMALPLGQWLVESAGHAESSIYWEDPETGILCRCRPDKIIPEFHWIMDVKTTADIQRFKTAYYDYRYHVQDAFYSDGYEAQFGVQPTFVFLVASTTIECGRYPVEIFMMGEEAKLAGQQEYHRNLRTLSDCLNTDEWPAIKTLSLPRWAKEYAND

In a further data set the target is T6, RecE564 R744A (Escherichia coli K12, UniProt P15032 564-866, R744A).
T6 sequence: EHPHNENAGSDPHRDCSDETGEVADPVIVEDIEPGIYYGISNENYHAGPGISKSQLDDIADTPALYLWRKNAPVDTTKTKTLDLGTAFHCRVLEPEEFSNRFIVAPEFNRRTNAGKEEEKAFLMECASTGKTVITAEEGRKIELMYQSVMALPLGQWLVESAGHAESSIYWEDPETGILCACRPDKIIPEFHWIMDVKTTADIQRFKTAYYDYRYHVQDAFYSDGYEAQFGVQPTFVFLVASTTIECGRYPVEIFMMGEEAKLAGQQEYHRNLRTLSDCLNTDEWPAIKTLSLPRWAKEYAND

B1: F25 (dsDNA)
DNA 1: TAGAGCTTAATTGCTGAATCTGGTG
DNA 2: CACCAGATTCAGCAATTAAGCTCTA
Turning to B1, the dissociation constant Kd (usually the free concentration of one partner at which half of the binding sites on the other are occupied at equilibrium, for simple one-to-one binding) in the data set with RecE564 E729A came out at 57 ± 3 nM; with RecE564 Y778A, 130 ± 20 nM; in the data set with RecE564 Y785A, 98 ± 9 nM; with RecE564 P669A it was 109 ± 8 nM; with RecE564 E657A, 90 ± 10 nM; in the data set with RecE564 R744A, 95 ± 8 nM.
